Assay in all cases: cell-based or functional assay
Substrate in assay [1]: S protein of SARS-CoV-2 variant B.1.1.7 (UK, Alpha), full length, on pseudovirus or authentic virus (SARS-CoV-2), P0DTC2
Substrate in assay [2]: S protein of SARS-CoV-2 variant B.1.351 (SA, Beta), full length, on pseudovirus (SARS-CoV-2), P0DTC2
Substrate in assay [3]: S protein of SARS-CoV-2 variant P1 (Brazil, Gamma), full length, on pseudovirus or authentic virus (SARS-CoV-2), P0DTC2

For 5 molecules, PRNT50 and SARS-CoV2 pseudovirus IC50 results are on record in patent publication US20250270296A1.

B1: RBD-chAb-15 (antibody, V domains shown)
VH: EVQLEESGPGLVQPSQSLSITCTVSDFSLTTYGVHWVRQSPGKGLEWLGVIWSGGSTDYNAAFISRLSISKDNSKSQVFFKMNSLQTNDTAIYYCARMGDGYYVGAMDYWGQGTSVTVSS
VL: DIQLTQSPAILSVSPGERVSFSCRASQSIGTSIHWYQQRTNGSPRHLIKYASESISGIPSRFSGSGSGTDFTLTINGVESEDIADYYCQQGHNWPLTFGAGTKLDIK
Regarding B1, the PRNT50 in assay [1] was found to be 58.1 ng/mL; in assay [3], 50.9 ng/mL. Further, the SARS-CoV2 pseudovirus IC50 is 39.7 ng/mL in assay [1], 30.1 ng/mL in assay [2] and 7.18 ng/mL in assay [3].

B2: RBD-chAb-45 (antibody, V domains shown)
VH: EVQLQQSGPELVKPGASVKISCKTSGYTFTEYTIYWVKQSLGKSLEWIGGNNPNNDDTTYKQFFKGKATLTVDKSSSTAYMELRSLTSEDSAVYYCARDGYPYYYALDFWGQGTSVTVSS
VL: DILMTQSQKFMSTSVGDRVSVTCKSSQNVGTNVAWYQQKPGQSPKALIYSASYRYSGVPDHFTGSGSGTDFTLTISNVQSADLAEYFCQQYNNYPWTFGGGTKLDIK
Consider B2, for which the PRNT50 in assay [1] was 5.29 ng/mL; in assay [3], 3.26 ng/mL. Besides, the SARS-CoV2 pseudovirus IC50 was determined as 2.06 ng/mL in assay [1], 2.68 ng/mL in assay [2] and 0.76 ng/mL in assay [3].

B3: RBD-chAb-51 (antibody, V domains shown)
VH: EVQLQQSGPELVKPGASAKISCKTSGYTFTEYTMYWVKQSHGKSLEWIGGINPNNGDTTYNQTFKGKATLTVDKSSSTAYMELRSLTSEDSAVYYCARDGYPFYYALDYWGQGISVTVSS
VL: DIVMTQSQKFMSTSVGDRVSVTCKARQIVGTNVAWYQQKPGQSPKALIYSASYRYSGVPDRFTGSGSGTDFTLTITNVHSEDLAEFFCHQYNSYPWTFGGGTKLDIK
Take B3: the PRNT50 in assay [1] worked out at 6.39 ng/mL; in assay [3] it was 2.92 ng/mL. Further, the SARS-CoV2 pseudovirus IC50 in assay [1] worked out at 3.07 ng/mL; in assay [2], 1.26 ng/mL; in assay [3], 0.7 ng/mL.

B4: RBD-chAb-1 (antibody, V domains shown)
VH: EVQLQQSGPQLVRPGASMKISCKASGYSFTTYWMHWVKQRPGQGLQWIGMIDPSDSETRLNQKFKDKATLTVDKSSSTAYMQLSSPTSEDSAVYYCARDFDYDRTMDYWGQGTSVTVSS
VL: DIVMSQSPSSLAVSVGEKVTMSCKSSQSLLFSSSQKNYLAWYQQKAGQSPKLLIFWASTRESGVPDRFTGSGSGTDFTLTISSVKAEDLAIYYCKQYYKYPLTFGAGTKLDIK
For the molecule B4, the values for the SARS-CoV2 pseudovirus IC50 in assay [1], in assay [2] and in assay [3] were 33.5 ng/mL, 46.7 ng/mL and 17.1 ng/mL, respectively.

B5: RBD-chAb-28 (antibody, V domains shown)
VH: QVQLQQPGTELVMPGASVKMSCKASGYTFTDYYLHWMKQRPGQGLEWIGAIDSSDSYTDYNQNFKGKATLTVDESSSTAYMHLSSLTSEDSAVYYCARGKDAYDRRPWFAYWGQGTLVTVSA
VL: DIQMTQTTSSLSASLGDRVTISCSASQGIRYYLNWYQQKPDGTVKLLIYYTSNLHSGVPSRFSGSGSGTDYSLTISNLEPEDIATYYCQQYNKLPYTFGGGTKLDIK
For B5, the PRNT50 in assay [1] turned out to be 58.5 ng/mL; in assay [3], 58.3 ng/mL. The SARS-CoV2 pseudovirus IC50 in assay [1] is 11.3 ng/mL; in assay [2], 16.5 ng/mL; in assay [3], 4.18 ng/mL.
